Measurements from paper PMC4937376, “CpsR, a GntR family regulator, transcriptionally regulates capsular polysaccharide biosynthesis and governs bacterial virulence in Streptococcus pneumoniae”.

Biological target: 6His-CpsR (Streptococcus pneumoniae D39, UniProt A0A0H2ZMA3 1-247)
Experiment: EMSA; 0.25 uM probe; EMSA: 20 ul, LightShift kit buffer (composition not given) with 50 ng/ul poly(dI-dC), 20 min room temperature, 6% gel; footprinting: 400 ng probe in 40 ul, 30 min at 25 C
Conditions: protein: recombinant; tags: 6His; chain copies: 2; label: 5'-biotin (top strand); blunt

B1: WT 33-mer (dsDNA)
DNA 1: TGTCATGTTCTTATTTCATTTTACTATATTTTT
DNA 2: AAAAATATAGTAAAATGAAATAAGAACATGACA
- binding result: binds
